B1: RNA1/RNA2 (dsRNA)
RNA 1: GUGUAGUAAUCGUCCAUUGUGUCU
RNA 2: AGACACAAUGGACGAUUACUACAC

How the values were obtained:
MBP-VP5 [1] = biological target: T1, MBP-VP5 (Helicoverpa armigera cypovirus 5 …, UniProt Q3LTV8 1-380); assay: EMSA; 10 pmol protein, 0.1 pmol probe; Hill coefficient ~1.499 (0.05-0.16 uM) and ~4.972 (0.2-0.48 uM); 25 mM HEPES-KOH pH 7.5, 100 mM NaCl, 10 ul, 30 min at room temperature; 2% agarose gel
MBP-VP5 [2] = biological target: T1, MBP-VP5; assay: competition; vs HEX-RNA1, 5-100 fold excess, 2 pmol protein; 25 mM HEPES-KOH pH 7.5, 100 mM NaCl, 10 ul, 30 min at room temperature; 2% agarose gel
MBP-VP5 [3] = biological target: T1, MBP-VP5; assay: EMSA; 10 pmol protein, 0.1 pmol probe; 25 mM HEPES-KOH pH 7.5, 100 mM NaCl, 10 ul, 30 min at room temperature; 2% agarose gel

Binder | binding result (MBP-VP5 [3]) | also measured
GUGUAGUAAUCGUCCAUUGUGUCU (ssRNA) [RNA1] |  | binding result (MBP-VP5 [1]): binds
GUGUAGUAAUCGUCCAUUGUGUCU (ssRNA) [RNA10] |  | binding result (MBP-VP5 [2]): binds
B1 | binds | 
GTGTAGTAATCGTCCATTGTGTCT (ssDNA) [DNA1] | binds | 

— PMC3936753
